{
  "source": "paper doi:10.1101/2023.07.07.548106",
  "about": "“CXCL17 binds efficaciously to glycosaminoglycans with the potential to modulate chemokine signalling” (bioRxiv, 2023)",
  "proteins": {"B1": {"name": "recombinant human CXCL17 (24-119) (natural protein, UniProt Q6UXB2 24-119, looked up)", "chain": "LNPGVARGHRDRGQASRRWLQEGGQECECKDWFLRAPRRKFMTVSGLPKKQCPCDHFKGNVKKTRHQRHHRKPNKHSRACQQFLKQCQLRSFALPL", "notes": "human CXCL17, residues Leu24-Leu119 of the 119-residue precursor (Q6UXB2), without the predicted signal peptide; the commercially available form; also called Leu24-Leu119 form of CXCL17; source: bought: R&D Systems; produced in E. coli"}},
  "molecular_target": "the molecule itself",
  "test": "reducing SDS-PAGE and Western blot; serial dilutions of recombinant CXCL17 (24-119), 1.25-10 uM, on reducing 12% Bis-Tris SDS-PAGE, blotted with anti-CXCL17; bands of 14 kDa and 28 kDa read as monomer and dimer; 28 kDa species at 5 uM and above",
  "data": [
    {"protein": "B1", "values": [
      {"measurement": "ratio of monomer:dimer", "value": "3 monomer:dimer"},
      {"measurement": "stoichiometry N", "value": 2}
    ]}
  ]
}
